From the RNAGym collection of RNA variant scans (doi:10.1073/pnas.2313332121)
Fewer inactive variants are shown than the library holds.

B1: TPR 5TU (parent)
chain: GGAUCUUCUCGAUCUAACAAAAAAGACAAAUCUGCCACAAAGCUUGAGAGCAUCUUCGGAUGCAGAGGCGGCAGCCUUCGGUGGCGCGAUAGCGCCAACGUUCUCAACUAUGACACGCAAAACGCGUGCUCCGUUGAAUGGAGUUUAUCAUG

Variants of: B1
Test: polymerase ribozyme fitness, log enrichment relative to wild type (log ratio); higher = more active; in vitro selection for triplet polymerase activity
In short: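 Mutant libraries for each subunit of a heterodimeric triplet polymerase ribozyme were made by PCR and then transcribed. Each library underwent one round of in vitro selection in triplicate: annealing with a biotinylated primer, the partner subunit and triplets, frozen incubation at −7 °C, gel excision of extended constructs, streptavidin-bead capture and RT-PCR. Input and output libraries were Illumina-sequenced, and only genotypes with ≥10 input reads and ≥1 read per output were kept. Fitness is the logarithm, base 2, of genotype enrichment over wild-type enrichment, computed from inverse-variance-weighted replicate averages.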

Compared with GGAUCUUCUCGAUCUAACAUAAAAGACAAAUCUGCCACAAAGCUUGAGAGCAUCUUGGGAUGCAGAGGCGGCAGCCUUCGGUGGCGCGAUAGUGCCAACGUUCUCAACUAUGACACGCAAAAUGCGUGCUCCGUUGAAUGGAGUUUAUCAUG, GGAUCUUCUCGAUCUAACAUAAAAGACAAAUCUGACACAACGCUUGAGAGCAUCUUCGGAUGCAGAGGCGGCAGCCUUCGGUGGCGCGAUAGCGUCAACGUUCUCAACUAUGACACGCAAAACGCGUGCUCCGUUGAAUGGAGUAUAUCAUG is lower in “polymerase ribozyme fitness (log ratio)” value: -2.57 for the first, ≤ -4.2 for the second.

Going from GGAUCUUCUCGAUCUAACAUAAAAGACAAAUCUGCCAGAAAGCUUGAGAGCAUCUUUGGAUGCAGAGGCGGCAGCCUUCGGUGGCACGAUAGCGCCAACGUUCUCAACUAUGACACGCAAAACGCGUGCUCCGUUGAAUGGAGUUUAUCAUG to GGAUCUUCUCGAUCUAACAUAAAAGACAAAUCUGCCACAAAGCUUGAGAGUAUCUUCGGAUGCAGAGGCGGCAGCCUUCGGUAGCGCGAUAGGGCUAACGUUAUAAACUAUGACACGCAAAACGCGUGCUCCGUUGAAUGGAGUUUAUCAUG, the “polymerase ribozyme fitness (log ratio)” value falls from -3.63 to ≤ -4.2.

Going from GGAUCUUCUCGAUCUAACAUAAAAGACAAAUCUGCCACAAAGCUUGAGAGCAUAUUCGGAUGCAGAGGCGGCAGCCUUCGGUGGCGCGAUAGCGCCAACGUUCUCCACUAUGACACGCAAAACGCGUGCUCCGUUGAAUGGAGUUUAUCAUG to GGAUCUUCUCGAUCUAACAUAAAAGACAAAUCUGCCACAAAGCUUGAGAGCAUCUUCGGAUGAAGAGGCGGCAGCCUUCGGUGUCGUGAUAGCGCCAACGUUCUCAACUAUGACACGCAAAACGCGUGCUCCGUUGAAUGGAGUUUAUCAUG, the “polymerase ribozyme fitness (log ratio)” value rises from -3.99 to -3.3.

Compared with GGAUCUUCUCGAUCUAACAUAAAAGACAAAUCUGCCACAAAGCUUAAGAGCAUCUUCGGAUGCAGAGGCGGCAGCAUUCGGUGGCGGGAUAGCCCCAACGUUCUGAACUAUGACACGCAAAACGCGUGCUCCGUUGAAUGGAGAUUAUCAUG, GGAUCUUCUCGAUCUAACAUAAAACACAAAUCUGCCACAAAGCUUGAGAGCAUCUUCGGAUGCAGAGGCGGCAGCCUUCGGUGGCGCGAUAGCGCCAACGUUCUCAACUAUGACACGCAAAACGCGUGCUCCGUUGAAUGAAGUUUAUCAUG is higher in “polymerase ribozyme fitness (log ratio)” value: ≤ -4.2 for the first, -4.03 for the second.

Going from GGAUCUUCUCGAUCUAACAUAAAAGACAAAUCUGCCACAAAGCUUGAGAGUAUCGUGGGAUGCAGAGGCGGCAGCCUUCGGUGGCGCGAUAGCGCCAACGUUCUCAACUAUGACACGCACAACGCGUGCUCCGUUGAAUGGAGUUUAUCAUG to GGAUCUUCUCGAUCUAACAUAAAAGACAAAUCUGCCACAAAGCUUGAGAGCAUAUUCGGAUGCAGAGGCGGCAGCCUUCGGUGGCGCGAUAGCGCCAACGUUCUCAACUAUGACACGCAAAACGCGUGCUCCGUUGAAUGGAGUUUAUCAUG, the “polymerase ribozyme fitness (log ratio)” value rises from -3.76 to -2.02.

Going from GGAUCUUCUCGAUCUAACAUAAAAGACAAAUCUGACACAAAGCUUGAGAGCAUCUUCGGAUGCAGAGGCGGCAGCCUUCGGUGGCGCGAUAUCGCCAACGUUCUCAACUUUGACACGCAAAACGCGUGCUCCGUUGAAUGGAGUUUAUCAUG to GGAUCUUCUCGAUCUAACAUAAAAGACAAAUCUGCCACAAAGCUUGAGAGCAUCUUAGGAUGCAGAGGCGGCAGCCUUCGGUGUCGCGAUAGCGCCAACGUUCUCAACUAUGACACGCAAAACGCGUGCUCCGUUGAAUGGAGUUUAUCAUG, the “polymerase ribozyme fitness (log ratio)” value rises from ≤ -4.2 to -3.17.

GGAUCUUCUCGAUCUAACAUAAAAGACAAAUCUGUCACAAAGCUUGAGAGCAUCUUCGCAUGCAGAGGCGGCAGUCUUCGGUGGCGUGAUAGCGCCAAUGUUCUCAACUAUGACACGCAAAACGCGUGCUCCGUUGUUUGGAGUUUAUCAUG and GGAUCUUCUCGAUCUAACAUAAAAGACAAAUCUGCCACAAAGCUUCAGAGCAUCUUCGGAUUCAGAGGCGGCAGGCUUCGGUGGCGCGAUAACGCCAACGUUCUCAACUAUGACACGCAAAACGCGUGCUCCGUUGAAUCGAGUUUAUCAUG cannot be ordered by “polymerase ribozyme fitness (log ratio)” value: ≤ -4.2 for the first, ≤ -4.2 for the second.

Compared with GGAUCUUCUCGAUCUAACAUAAAAGACAAAUCUGCCACAAAGCUUGAGAGCAUCUUCGGAUGCAGAGGCGGCAGCCUUCGGUGGCGCGAUAGCGCGAACGUUCUCAACUAUGACACGCAAAACGCGUGCUCCGUUGAAUGGAGUUUAUCUUG, GGAUCUUCUCGAUCUAACAUAAAAGACAAAUCUGCCACAAAGCUUGAGAGCAUCUUUGUAUUCAGAGGCGGCAGCUUUCGGUGGCGCGAUAGCGCGAACGUUCUCAACUAUGACACGCAAAACGCGUGCUCCGUUGAAUGGAGUUUGUCAUG is lower in “polymerase ribozyme fitness (log ratio)” value: 0.47 for the first, ≤ -4.2 for the second.

First: GGAUCUUCUCGAUCUAACAUAAAAGACAAAUCUGCCACAAAGCUUGAGAGCAUCUUCGGAUGCAGAGGCGGCAGCCUUCGGUGGCGCGAUAGCGCCAACGUUCUCAACUAUGACACGCAAAACGAGUGCUCCGUUGAAUGGAGUUUAUCAUG
Second: GGAUCUUCUCGAUCUAACAUAAAAGACAAAUCUGCAACAAGGCUUGAGAGCAUCUACGGAUGCAUAGGCGGCAGCCUUCGGUGGCGCGAUAGCGCCAACGUUCUCAACUAUGACACGCGAAACGCGCGCUCCGUUGAAUGGAGUUUAUCAUG
The “polymerase ribozyme fitness (log ratio)” value of the first is higher: -2.05 for the first, ≤ -4.2 for the second.

For GGAUCUUCUCGAUCUAACAUAAAAGACAAAUCUGCCACAAAGCUUGAGAGCAUCUUUGGAUGCAGAGGCGGCAGCCUUCGGUGGCGCGAUAGCGCCAACGUUCUCAACUAUGACACGCAAAACGCGUGCUCCGUUGAAUGGAGUUUAUCAUG, the “polymerase ribozyme fitness (log ratio)” value was -2.23.
